These results are taken from PMC4600597.

The data set concerns C[C@H](CCC[C@@H](C)[C@H]1CC[C@H]2[C@@H]3CCC4=CC(=O)CC[C@]4(C)[C@H]3CC[C@]12C)C(=O)SCCNC(=O)CCNC(=O)[C@H](O)C(C)(C)COP(=O)(O)OP(=O)(O)OC[C@H]1O[C@@H](n2cnc3c(N)ncnc32)[C@H](O)[C@@H]1OP(=O)(O)O. As to the kind of experiment: purified protein. To be noted: pH 8.5; 25.0 °C.

Regarding “MCR (Rv1143) (Mycobacterium tuberculosis H37Rv)”, the Km (usually the concentration of substrate that gives half-maximal velocity) is 6.5 ± 1.4 µM.
